In paper PMC6566107, “Molecular Analysis of Protein-Protein Interactions in the Ethylene Pathway in the Different Ethylene Receptor Subfamilies” (Frontiers in Plant Science, 2019):

How the values were obtained:
[1] = target: T1, Arabidopsis thaliana ethylene receptor ETR1 (AtETR1), full-length, type-I subfamily (Arabidopsis thaliana, UniProt P49333 1-738, Alexa Fluor 488 succinimidyl-ester label where used as the labeled partner in MST); test: MST; 40 nM Alexa Fluor 488-labeled receptor (AtETR1 or AtETR2); unlabeled AtETR1 or AtETR2 (4 µM to 0.49 nM) or ETR1-TM C4SC6S (16 µM to 0.98 nM) titrated; 0.0075% (w/v) FosCholine-16; 60% MST power; 1:1 model; settings: both partners purified
T1 construct: ETR1, Arabidopsis thaliana, full-length receptor; source: recombinant, expressed and purified as described in Milić et al., 2018, in FosCholine-16
T1 sequence (looked up): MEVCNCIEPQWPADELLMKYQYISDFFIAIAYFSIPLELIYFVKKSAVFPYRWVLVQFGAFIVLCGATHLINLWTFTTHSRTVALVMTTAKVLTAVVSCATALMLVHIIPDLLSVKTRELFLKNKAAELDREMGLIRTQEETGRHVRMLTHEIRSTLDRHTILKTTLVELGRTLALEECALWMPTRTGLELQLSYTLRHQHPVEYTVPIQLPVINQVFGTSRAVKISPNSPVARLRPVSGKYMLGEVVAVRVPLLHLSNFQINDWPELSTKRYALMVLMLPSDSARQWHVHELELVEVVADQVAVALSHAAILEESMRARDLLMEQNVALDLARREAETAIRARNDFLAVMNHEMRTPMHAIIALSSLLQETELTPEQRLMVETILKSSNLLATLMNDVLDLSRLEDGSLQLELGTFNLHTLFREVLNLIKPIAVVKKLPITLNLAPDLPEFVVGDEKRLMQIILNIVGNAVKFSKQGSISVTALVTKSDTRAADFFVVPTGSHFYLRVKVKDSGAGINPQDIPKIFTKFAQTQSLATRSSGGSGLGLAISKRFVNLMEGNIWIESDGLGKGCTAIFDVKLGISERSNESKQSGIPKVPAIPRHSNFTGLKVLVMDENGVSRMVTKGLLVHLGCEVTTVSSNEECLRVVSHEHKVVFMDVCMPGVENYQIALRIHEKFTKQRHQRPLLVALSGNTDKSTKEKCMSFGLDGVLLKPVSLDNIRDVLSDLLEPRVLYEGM

[2] = target: T2, Arabidopsis thaliana ethylene receptor ETR2 (AtETR2), full-length, type-II subfamily (Arabidopsis thaliana, UniProt Q0WPQ2 1-773, Alexa Fluor 488 succinimidyl-ester label where used as the labeled partner in MST); test: as above; settings: both partners purified
T2 construct: ETR2, Arabidopsis thaliana, UniProt Q0WPQ2, full-length, codon optimized cDNA according to NCBI NM_113216.3; The thrombin site of pGEX-4T-1 was changed to a TEV site (ENLYFQG); No cleavage is described; The purified protein runs at an apparent 120 kDa, so GST is probably still attached; The same construct was used with and without the Alexa Fluor 488 label; source: E. coli C43 (DE3), solubilised …
T2 sequence (looked up): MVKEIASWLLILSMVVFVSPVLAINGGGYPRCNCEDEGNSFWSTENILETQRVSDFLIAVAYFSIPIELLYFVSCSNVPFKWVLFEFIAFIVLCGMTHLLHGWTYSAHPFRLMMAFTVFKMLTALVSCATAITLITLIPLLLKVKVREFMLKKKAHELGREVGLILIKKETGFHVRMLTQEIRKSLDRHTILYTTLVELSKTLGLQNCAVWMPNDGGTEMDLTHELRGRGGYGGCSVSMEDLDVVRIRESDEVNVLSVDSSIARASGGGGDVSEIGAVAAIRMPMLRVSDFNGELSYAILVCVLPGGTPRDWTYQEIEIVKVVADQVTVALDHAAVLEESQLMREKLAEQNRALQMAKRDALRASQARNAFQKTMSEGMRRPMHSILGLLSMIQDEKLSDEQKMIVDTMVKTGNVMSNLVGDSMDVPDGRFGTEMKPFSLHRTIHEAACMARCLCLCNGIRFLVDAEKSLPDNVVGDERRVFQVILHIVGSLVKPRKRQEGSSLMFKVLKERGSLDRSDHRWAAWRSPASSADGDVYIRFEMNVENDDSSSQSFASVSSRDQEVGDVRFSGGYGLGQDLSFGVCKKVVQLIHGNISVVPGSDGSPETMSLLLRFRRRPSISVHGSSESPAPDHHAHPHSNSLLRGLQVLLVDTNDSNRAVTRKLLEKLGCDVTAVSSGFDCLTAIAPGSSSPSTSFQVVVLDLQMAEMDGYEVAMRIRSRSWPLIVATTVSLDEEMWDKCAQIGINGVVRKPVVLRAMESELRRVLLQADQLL

B1: Isolated transmembrane domain of AtETR1 (aa 1-157) with C4S and C6S (domain or fragment, Arabidopsis thaliana, UniProt P49333 1-157, looked up)
chain: MEVSNSIEPQWPADELLMKYQYISDFFIAIAYFSIPLELIYFVKKSAVFPYRWVLVQFGAFIVLCGATHLINLWTFTTHSRTVALVMTTAKVLTAVVSCATALMLVHIIPDLLSVKTRELFLKNKAAELDREMGLIRTQEETGRHVRMLTHEIRSTL
notes: ETR1, Arabidopsis thaliana, transmembrane domain, residues 1-157, cysteines 4 and 6 changed to serine; also called ETR1-TM^C4SC6S; AtETR1-TM^C4SC6S
binding result [1]: binds | binding result [2]: binds
